According to patent US20230265151A1, “GIP/GLP1 CO-AGONIST COMPOUNDS” (priority 2020, published 2023):
Residue numbers refer to the chain shown, from its start. *1 amine or outer side, *2 acyl side, *3 side chain or, on linkers, in order; H or OH if unused. Where no end group is shown, it is not given here. Side-chain parts run from the residue outwards. [ ]: non-standard residue; d: D form. The star is where a group is joined. αMePhe(2-F) = C[C@](N)(Cc1ccccc1F)C(=O)O; γGlu = O=C(O)[C@H](CCC(=O)[*:2])N[*:1]; C14 diacid = O=C(O)CCCCCCCCCCCCC(=O)*; αMeY = C[C@](N)(Cc1ccc(O)cc1)C(=O)O; αMeF = C[C@](N)(Cc1ccccc1)C(=O)O; αMeL = CC(C)C[C@](C)(N)C(=O)O; Orn = NCCC[C@H](N)C(=O)O; AEEA = NCCOCCOCC(=O)O; Aib = CC(C)(N)C(=O)O

B1: Example 72 (peptide)
peptide: YXEGTXTSDXSIXLDXIAQXEFIKXLIEGGPSSGAPPPSK
modifications: Aib2, αMeF(2F)6, 4Pal10, αMeL13, Orn16, Aib20, αMeY25, K24 and K40: K(AEEA2-(γ-Glu)-CO-(CH2)12-CO2H), C-terminal NH2
B2: Example 75 (peptide)
peptide: B1 peptide with E21K, K24X
modifications: Aib2, αMeF(2F)6, 4Pal10, αMeL13, Orn16, Aib20, D-Glu24, αMeY25, K21 and K40: K(AEEA2-(γ-Glu)-CO-(CH2)12-CO2H), C-terminal NH2
B3: Example 71 (peptide)
peptide: YXEGTXTSDXSIXLDXIAQXEFIKXLIEGGKSSGAPPPS
modifications: Aib2, αMeF(2F)6, 4Pal10, αMeL13, Orn16, Aib20, αMeY25, K24 and K31: K(AEEA2-(γ-Glu)-CO-(CH2)12-CO2H), C-terminal NH2
B4: Example 84 (peptide)
peptide: B3 peptide with I17K, F22X, K31P
modifications: Aib2, αMeF(2F)6, 4Pal10, αMeL13, Orn16, Aib20, αMeF22, αMeF25, K17 and K24: K(AEEA2-(γ-Glu)-CO-(CH2)12-CO2H), C-terminal NH2
B5: Example 74 (peptide)
peptide: B3 peptide with E21K, K24X
modifications: Aib2, αMeF(2F)6, 4Pal10, αMeL13, Orn16, Aib20, D-Glu24, αMeY25, K21 and K31: K(AEEA2-(γ-Glu)-CO-(CH2)12-CO2H), C-terminal NH2
B6: Example 83 (peptide)
peptide: B3 peptide with I17K, K31P
modifications: Aib2, αMeF(2F)6, 4Pal10, αMeL13, Orn16, Aib20, αMeF25, K17 and K24: K(AEEA2-(γ-Glu)-CO-(CH2)12-CO2H), C-terminal NH2
B7: Example 77 (peptide)
peptide: B3 peptide with I17K, E21K, K24X, K31P
modifications: Aib2, αMeF(2F)6, 4Pal10, αMeL13, Orn16, Aib20, D-Glu24, αMeY25, K17 and K21: K(AEEA3-(γ-Glu)-CO-(CH2)12-CO2H), C-terminal NH2
B8: Example 82 (peptide)
peptide: B3 peptide with I17K, F22X, K31P
modifications: Aib2, αMeF(2F)6, 4Pal10, αMeL13, Orn16, Aib20, αMeF22, αMeY25, K17 and K24: K(AEEA2-(γ-Glu)-CO-(CH2)12-CO2H), C-terminal NH2
B9: Example 85 (peptide)
peptide: B3 peptide with I17K, F22X, X25Y, K31P
modifications: Aib2, αMeF(2F)6, 4Pal10, αMeL13, Orn16, Aib20, αMeF22, K17 and K24: K(AEEA2-(γ-Glu)-CO-(CH2)12-CO2H), C-terminal NH2
B10: Example 5 (peptide)
peptide: B3 peptide with I17K, K24X
modifications: Aib2, αMeF(2F)6, 4Pal10, αMeL13, Orn16, Aib20, D-Glu24, αMeY25, K17 and K31: K(AEEA2-(γ-Glu)-CO-(CH2)10-CH3), C-terminal NH2
B11: Example 86 (peptide)
peptide: B3 peptide with I17Q, K24X, E28K
modifications: Aib2, αMeF(2F)6, 4Pal10, αMeL13, Orn16, Aib20, D-Glu24, αMeY25, K28 and K31: K(AEEA2-(γ-Glu)-CO-(CH2)12-CO2H), C-terminal NH2
B12: Example 76 (peptide)
peptide: B3 peptide with I17K, E21K, K24X, K31P
modifications: Aib2, αMeF(2F)6, 4Pal10, αMeL13, Orn16, Aib20, D-Glu24, αMeY25, K17 and K21: K(AEEA-(γ-Glu)-CO-(CH2)12-CO2H), C-terminal NH2
B13: Example 79 (peptide)
peptide: B3 peptide with I17K, K31P
modifications: Aib2, αMeF(2F)6, 4Pal10, αMeL13, Orn16, Aib20, αMeY25, K17 and K24: K(AEEA-(γ-Glu)-CO-(CH2)12-CO2H), C-terminal NH2
B14: Example 92 (peptide)
peptide: B3 peptide with X10V, I17K, F22X, K24X
modifications: Aib2, αMeF(2F)6, αMeL13, Orn16, Aib20, αMeF22, D-Glu24, αMeY25, K17 and K31: K(AEEA2-(γ-Glu)-CO-(CH2)12-CO2H), C-terminal NH2
B15: Example 8 (peptide)
peptide: B3 peptide with I17K, K24X
modifications: Aib2, αMeF(2F)6, 4Pal10, αMeL13, Orn16, Aib20, D-Glu24, αMeY25, K17 and K31: K(AEEA2-(γ-Glu)-CO-(CH2)12-CH3), C-terminal NH2
B16: Example 80 (peptide)
peptide: B3 peptide with I17K, K31P
modifications: Aib2, αMeF(2F)6, 4Pal10, αMeL13, Orn16, Aib20, αMeY25, K17 and K24: K(AEEA3-(γ-Glu)-CO-(CH2)12-CO2H), C-terminal NH2
B17: Example 81 (peptide)
peptide: B3 peptide with I17K, K31P
modifications: Aib2, αMeF(2F)6, 4Pal10, αMeL13, Orn16, Aib20, αMeY25, K17 and K24: K(AEEA2-CO-(CH2)12-CO2H), C-terminal NH2
B18: Example 73 (peptide)
peptide: B3 peptide with E21K, K24X, E28K, K31P
modifications: Aib2, αMeF(2F)6, 4Pal10, αMeL13, Orn16, Aib20, D-Glu24, αMeY25, K21 and K28: K(AEEA2-(γ-Glu)-CO-(CH2)12-CO2H), C-terminal NH2
B19: Example 88 (peptide)
peptide: B3 peptide with I17K, F22X, K24X
modifications: Aib2, αMeF(2F)6, 4Pal10, αMeL13, Orn16, Aib20, αMeF(2F)22, D-Glu24, αMeY25, K17 and K31: K(AEEA2-(γ-Glu)-CO-(CH2)12-CO2H), C-terminal NH2
B20: Example 87 (peptide)
peptide: B3 peptide with I17K, K24X
modifications: Aib2, αMeF(2F)6, αMeF(2F)10, αMeL13, Orn16, Aib20, D-Glu24, αMeY25, K17 and K31: K(AEEA2-(γ-Glu)-CO-(CH2)12-CO2H), C-terminal NH2
B21: Example 89 (peptide)
peptide: B3 peptide with S11X, I17K, K24X
modifications: Aib2, αMeF(2F)6, 4Pal10, Aib11, αMeL13, Orn16, Aib20, D-Glu24, αMeY25, K17 and K31: K(AEEA2-(γ-Glu)-CO-(CH2)12-CO2H), C-terminal NH2
B22: Example 90 (peptide)
peptide: B3 peptide with X10V, I17K, K24X
modifications: Aib2, αMeF(2F)6, αMeL13, Orn16, Aib20, D-Glu24, αMeY25, K17 and K31: K(AEEA2-(γ-Glu)-CO-(CH2)12-CO2H), C-terminal NH2
B23: Example 78 (peptide)
peptide: B3 peptide with I17K, E21K, K24X, K31P
modifications: Aib2, αMeF(2F)6, 4Pal10, αMeL13, Orn16, Aib20, D-Glu24, αMeY25, K17 and K21: K(AEEA2-CO-(CH2)12-CO2H), C-terminal NH2
B24: Example 93 (peptide)
peptide: Y[Aib]EGT[αMePhe(2-F)]TSDV[Aib]I[αMeL]LD[Orn]K([AEEA-AEEA-γGlu-C14 diacid])AQ[Aib]E[αMeF]I[dE][αMeY]LIEGGK([AEEA-AEEA-γGlu-C14 diacid])SSGAPPPS-NH2

How the values were obtained:
Experiment in all cases: cell-based or functional assay
[1] = target: T1, human GIP receptor (human, UniProt P48546 22-466)
T1 sequence (looked up): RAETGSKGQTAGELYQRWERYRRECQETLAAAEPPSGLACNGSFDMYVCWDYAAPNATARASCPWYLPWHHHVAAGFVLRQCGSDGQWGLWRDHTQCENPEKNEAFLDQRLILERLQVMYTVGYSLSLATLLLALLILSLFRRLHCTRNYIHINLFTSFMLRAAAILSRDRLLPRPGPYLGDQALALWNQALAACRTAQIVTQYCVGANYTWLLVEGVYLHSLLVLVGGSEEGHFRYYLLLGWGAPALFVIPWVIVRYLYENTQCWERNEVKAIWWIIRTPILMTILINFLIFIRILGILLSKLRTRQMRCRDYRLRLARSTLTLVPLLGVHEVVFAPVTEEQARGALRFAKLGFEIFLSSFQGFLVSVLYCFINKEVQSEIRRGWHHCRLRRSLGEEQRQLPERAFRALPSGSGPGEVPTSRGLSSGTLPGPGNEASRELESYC

[2] = target: human GLP-1 receptor (human, UniProt P43220 24-463)
[3] = target: human glucagon receptor (human, UniProt P47871 26-477)

| Binder | EC50, cAMP [1] | Emax, cAMP [1] | EC50, cAMP [2] | EC50, cAMP [3] | Emax, cAMP [2] |
| --- | --- | --- | --- | --- | --- |
| B1 | 0.016 nM | 96.5% | 0.245 nM | > 9950 nM | – |
| B2 | 0.0182 nM | 92.3% | 0.411 nM | > 9950 nM | – |
| B3 | 0.0171 nM | 93.8% | 0.246 nM | > 9950 nM | – |
| B4 | 0.0315 nM | 98.5% | 5.27 nM | > 9950 nM | 94% |
| B5 | 0.0156 nM | 93.3% | 0.334 nM | > 9950 nM | – |
| B6 | 0.0223 nM | 89.6% | 0.451 nM | > 9950 nM | – |
| B7 | 0.0288 nM | – | 3.03 nM | > 9950 nM | 87% |
| B8 | 0.0206 nM | 81.4% | 4.78 nM | > 9950 nM | – |
| B9 | 0.0312 nM | 91.7% | 7.69 nM | > 9950 nM | 95.3% |
| B10 | 0.00585 nM | – | 0.057 nM | > 9150 nM | – |
| B11 | 0.0184 nM | 94.2% | 0.359 nM | > 9950 nM | – |
| B12 | 0.0205 nM | – | 0.527 nM | > 9950 nM | – |
| B13 | 0.013 nM | – | 0.223 nM | > 9950 nM | – |
| B14 | 0.0251 nM | – | 0.942 nM | > 9950 nM | – |
| B15 | 0.00307 nM | – | 0.0157 nM | > 9950 nM | – |
| B16 | 0.0245 nM | 92.4% | 0.718 nM | > 9950 nM | – |
| B17 | 0.0114 nM | – | 0.176 nM | > 9950 nM | – |
| B18 | 0.0207 nM | 97.1% | 0.437 nM | > 9950 nM | – |
| B19 | 0.00884 nM | 85.1% | 6.08 nM | > 9950 nM | 97.1% |
| B20 | 0.029 nM | 84.7% | 1.34 nM | > 9950 nM | – |
| B21 | 0.0301 nM | 88.9% | 1.03 nM | > 9950 nM | – |
| B22 | 0.0436 nM | 93% | 0.221 nM | > 9950 nM | 96.2% |
| B23 | 0.0145 nM | – | 0.286 nM | > 9950 nM | – |
| B24 | 0.0448 nM | 99.4% | 0.575 nM | > 9950 nM | – |
